Laboratory results reported in IntAct's records for PubMed 24165923.

Biological target: rspo1_human RSPO1 (UniProt Q2MKA7)
Sequence (Q2MKA7 whole entry): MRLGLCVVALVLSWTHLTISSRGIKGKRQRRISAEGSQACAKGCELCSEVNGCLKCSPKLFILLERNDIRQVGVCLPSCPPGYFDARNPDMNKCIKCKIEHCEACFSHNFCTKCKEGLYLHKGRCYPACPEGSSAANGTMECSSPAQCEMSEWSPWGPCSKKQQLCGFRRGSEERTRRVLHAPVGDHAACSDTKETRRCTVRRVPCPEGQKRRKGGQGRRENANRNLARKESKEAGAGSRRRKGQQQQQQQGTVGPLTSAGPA

## E3 ubiquitin-protein ligase ZNRF3 (Homo sapiens), Q9ULT6 P103A
  effect of a mutation on the interaction: disrupting interaction
